From US20160159862A1 (PROTAGONIST THERAPEUTICS, published 2016)
Bridge positions count the residues as written; N and C are the ends. Square brackets hold non-standard residues; d marks the D form. Primed or numbered codes have the meaning given here. Ends that are not written are not given here. PEG13′ = Bifunctional PEG linker with 13 polyethylene glycol units; PEG25′ = Bifunctional PEG linker with 25 polyethylene glycol units; Phe(4-CF3) = N[C@@H](Cc1ccc(C(F)(F)F)cc1)C(=O)O; Phe(4-tBu) = CC(C)(C)c1ccc(C[C@H](N)C(=O)O)cc1; Bip = N[C@@H](Cc1ccc(-c2ccccc2)cc1)C(=O)O; Phe(4-CN) = N#Cc1ccc(C[C@H](N)C(=O)O)cc1; 1Nal = N[C@@H](Cc1cccc2ccccc12)C(=O)O; 2Nal = N[C@@H](Cc1ccc2ccccc2c1)C(=O)O; NMeR = CN[C@@H](CCCNC(=N)N)C(=O)O; Tic = O=C(O)[C@@H]1Cc2ccccc2CN1; β3hE = N[C@@H](CCC(=O)O)CC(=O)O; NMeK = CN[C@@H](CCCCN)C(=O)O; Pen = CC(C)(S)[C@H](N)C(=O)O; hLeu = CC(C)CC[C@H](N)C(=O)O

Target: α4β7 integrin on human cells (human, UniProt P13612 34-1032; P26010 20-798)
Assay: cell-based or functional assay

| Binder | α4β7 cell (Hu) IC50 [nM] | PBMC IC50 [nM] |
| --- | --- | --- |
| Ac-[Pen][NMeR]SDTL[Pen]W[BetaE][dK]-NH2 (disulfide 1-7 (inferred); also: dimer via DIG) [SEQ ID NO 1] | > 50 | – |
| [PEG13′]C[NMeR]SDTL[Pen]W-NH2 (disulfide 2-8 (inferred)) [SEQ ID NO 20] | > 50 | – |
| Ac-[Pen][NMeR]SDTL[Pen][1Nal][Tic][dK]-NH2 (disulfide 1-7 (inferred); also: homodimer via DIG) [SEQ ID NO 115] | > 100 | – |
| Ac-[Pen][NMeR]SDTL[Pen][1Nal][dT][dK]-NH2 (disulfide 1-7 (inferred); also: homodimer via DIG) [SEQ ID NO 116] | > 50 | – |
| Ac-[Pen][NMeR]SDTL[Pen][2Nal][dF][dK]-NH2 (disulfide 1-7 (inferred); also: homodimer via DIG) [SEQ ID NO 117] | > 100 | – |
| Ac-[Pen][NMeR]SDTL[Pen][2Nal][dH][dK]-NH2 (disulfide 1-7 (inferred); also: homodimer via DIG) [SEQ ID NO 118] | > 25 | – |
| Ac-[Pen][NMeR]SDTL[Pen][2Nal][dL][dK]-NH2 (disulfide 1-7 (inferred); also: homodimer via DIG) [SEQ ID NO 119] | > 500 | – |
| Ac-[Pen][NMeR]SDTL[Pen][2Nal][dR][dK]-NH2 (disulfide 1-7 (inferred); also: homodimer via DIG) [SEQ ID NO 120] | > 1000 | – |
| Ac-[Pen][NMeR]SDTL[Pen][2Nal][Tic][dK]-NH2 (disulfide 1-7 (inferred); also: homodimer via DIG) [SEQ ID NO 121] | > 100 | – |
| Ac-[Pen][NMeR]SDTL[Pen][Phe(4-CF3)][dE][dK]-NH2 (disulfide 1-7 (inferred); also: homodimer via DIG) [SEQ ID NO 122] | > 50 | – |
| Ac-[Pen][NMeR]SDTL[Pen]Y[dE][dK]-NH2 (disulfide 1-7 (inferred); also: homodimer via DIG) [SEQ ID NO 123] | > 50 | – |
| Ac-[Pen][NMeR]SDTL[Pen]H[dE][dK]-NH2 (disulfide 1-7 (inferred); also: homodimer via DIG) [SEQ ID NO 124] | > 100 | – |
| [PEG25′]C[NMeR]SDTL[Pen]W-NH2 (disulfide 2-8 (inferred)) [SEQ ID NO 21] | > 50 | – |
| XRSDTLXW (Ac-Pen-(N-Me-R)-S-D-T-L-Pen-W-OH; disulfide) [SEQ ID NO 127] | > 100 | – |
| Ac-[Pen][NMeR]SDTL[Pen]WE-OH (disulfide 1-7 (inferred)) [SEQ ID NO 128] | > 50 | – |
| Ac-[Pen][NMeR]SDTL[Pen][Bip][β3hE][dK]-NH2 (disulfide 1-7 (inferred); also: homodimer via DIG) [SEQ ID NO 135] | ≤ 10 | – |
| Ac-[Pen][NMeR]SDTL[Pen][Bip]E[NMeK]-NH2 (disulfide 1-7 (inferred); also: homodimer via DIG) [SEQ ID NO 136] | ≤ 10 | – |
| Ac-[Pen][NMeR]SDTL[Pen][Phe(4-CN)][β3hE][dK]-NH2 (disulfide 1-7 (inferred); also: homodimer via DIG) [SEQ ID NO 139] | ≤ 10 | – |
| Ac-[Pen][NMeR]SDTL[Pen][2Nal][dT][dK]-NH2 (disulfide 1-7 (inferred); also: homodimer via DIG) [SEQ ID NO 140] | > 10 | – |
| Ac-[Pen][NMeR]SDTL[Pen]HE[dK]-NH2 (disulfide 1-7 (inferred); also: homodimer via DIG) [SEQ ID NO 25] | > 10 | – |

| Binder | α4β7 cell (Hu) IC50 [nM] | PBMC IC50 [nM] |
| --- | --- | --- |
| Ac-[Pen][NMeR]SDTL[Pen]HY[dK]-NH2 (disulfide 1-7 (inferred); also: homodimer via DIG) [SEQ ID NO 26] | > 100 | – |
| Ac-[Pen][NMeR]SDVL[Pen][2Nal][dE]-NH2 (disulfide 1-7 (inferred)) [SEQ ID NO 156] | > 100 | – |
| Ac-[Pen][NMeR]SDFL[Pen][2Nal][dE]-NH2 (disulfide 1-7 (inferred)) [SEQ ID NO 157] | > 1000 | – |
| Ac-XRSDXLXXE-NH2 (disulfide 1-7 (inferred); not fully specified (residues 1, 2, 5, 7, 8, 9); printed as Ac-Pen-(N-Me-R)-S-D-Cha-L-Pen-(2-Nal)-e-NH2, disulfide) [SEQ ID NO 158] | > 1000 | – |
| Ac-[Pen][NMeR]SDLL[Pen][2Nal][dE]-NH2 (disulfide 1-7 (inferred)) [SEQ ID NO 159] | > 1000 | – |
| Ac-[Pen][NMeR]SDIL[Pen][2Nal][dE]-NH2 (disulfide 1-7 (inferred)) [SEQ ID NO 160] | > 1000 | – |
| Ac-[Pen][NMeR]SD[hLeu]L[Pen][2Nal][dE]-NH2 (disulfide 1-7 (inferred)) [SEQ ID NO 161] | > 1000 | – |
| Ac-[Pen][NMeR]SDTF[Pen][2Nal][dE]-NH2 (disulfide 1-7 (inferred)) [SEQ ID NO 162] | > 1000 | – |
| Ac-[Pen][NMeR]SDTL[Pen][2Nal][dY][dK]-NH2 (disulfide 1-7 (inferred); also: homodimer via DIG) [SEQ ID NO 27] | > 25 | – |
| Ac-[Pen][NMeR]SDTQ[Pen][2Nal][dE]-NH2 (disulfide 1-7 (inferred)) [SEQ ID NO 163] | > 1000 | – |
| Ac-[Pen][NMeR]SDTY[Pen][2Nal][dE]-NH2 (disulfide 1-7 (inferred)) [SEQ ID NO 164] | > 1000 | – |
| Ac-[Pen][NMeR]SDTL[Pen][Phe(4-tBu)][b‑H‑E]-NH2 (disulfide 1-7 (inferred)) [SEQ ID NO 165] | > 10 | > 100 |
| Ac-[Pen][NMeR]SDTL[Pen][Phe(4-tBu)][b‑H‑E][dK]-NH2 (disulfide 1-7 (inferred); also: homodimer via IDA) [SEQ ID NO 166] | ≤ 10 | ≤ 10 |
| Ac-[Pen][NMeR]SDTL[Pen][Phe(4-tBu)][b‑H‑E][dK]-NH2 (disulfide 1-7 (inferred); also: homodimer via IDA-PEG4-Biotin) [SEQ ID NO 167] | ≤ 10 | ≤ 10 |
| Ac-[Pen][NMeR]SDTL[Pen][Phe(4-tBu)][b‑H‑E][dK]-OH (disulfide 1-7 (inferred); also: homodimer via DIG) [SEQ ID NO 168] | ≤ 10 | ≤ 10 |
| Ac-[Pen][NMeR]SDTL[Pen][dW]E[dK]-NH2 (disulfide 1-7 (inferred); also: homodimer via DIG) [SEQ ID NO 28] | > 50 | – |
| Ac-[Pen][NMeR]SDTL[Pen][Phe(4-tBu)][b‑H‑E][dK] (disulfide 1-7 (inferred); not fully specified (residue 10); also: 4,4,4-trifluorobutyric acid attached after k) [SEQ ID NO 169] | > 10 | – |
| Ac-[Pen][NMeR]SDTL[Pen][Phe(4-tBu)][b‑H‑E][dK] (disulfide 1-7 (inferred); not fully specified (residue 10); also: hexanoic acid attached after k) [SEQ ID NO 170] | > 10 | – |
| Ac-[Pen][NMeR]SDTL[Pen][Phe(4-tBu)][b‑H‑E][dK] (disulfide 1-7 (inferred); not fully specified (residue 10); also: isovaleric acid attached after k) [SEQ ID NO 171] | > 10 | – |
| Ac-[Pen][NMeR]SDTL[Pen][Phe(4-tBu)][b‑H‑E][dK] (disulfide 1-7 (inferred); not fully specified (residue 10); also: palmitoyl (palmitoyl chloride) attached after k) [SEQ ID NO 172] | 965 | – |
